This is an account of results in doi:10.1101/768341.

The assay deals with GST-TRAF6 (mouse) (UniProt P70196). Description: SPR. (In general: In SPR one partner is held on a chip, and binding of the other changes the refractive index at the surface.)
Sequence of UniProt P70196 (P70196 whole entry): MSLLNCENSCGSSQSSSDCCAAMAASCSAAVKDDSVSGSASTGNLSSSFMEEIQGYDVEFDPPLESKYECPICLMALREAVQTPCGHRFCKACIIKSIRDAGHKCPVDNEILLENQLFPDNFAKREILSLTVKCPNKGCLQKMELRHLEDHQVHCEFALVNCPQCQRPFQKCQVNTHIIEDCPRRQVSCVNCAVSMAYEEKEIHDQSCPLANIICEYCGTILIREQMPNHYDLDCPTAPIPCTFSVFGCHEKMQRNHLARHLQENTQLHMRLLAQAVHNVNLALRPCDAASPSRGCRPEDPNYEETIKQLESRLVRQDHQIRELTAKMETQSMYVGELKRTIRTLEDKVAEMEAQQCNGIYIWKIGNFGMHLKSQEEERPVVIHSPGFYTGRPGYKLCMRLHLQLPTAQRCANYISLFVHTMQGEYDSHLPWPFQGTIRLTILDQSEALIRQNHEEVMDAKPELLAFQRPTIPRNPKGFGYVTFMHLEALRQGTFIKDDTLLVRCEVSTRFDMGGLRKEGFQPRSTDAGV

In general, Kd refers to the constant that tells how readily two partners part at equilibrium. Lower therefore signals higher affinity. As a reminder, the stoichiometry N is a count of units in the complex or per binding partner. With “neuroplastin intracellular peptide containing the TRAF6 binding motif”, the dissociation constant (Kd) is 88 µM and the stoichiometry N worked out at 1.
